Experimental data taken from patent US20250074984A1.

Key:
FcγRIIβ [1] = target: FcγRIIβ (UniProt P31994); assay: ratio of the chip-kinetics KDs on Hu FcgRIIA_R167 and Hu FcgRIIB
FcγRIIβ [2] = target: FcγRIIβ (UniProt P31994); assay: ratio of the chip-kinetics KDs on Hu FcgRIIB and Hu FcgRIIA_R167
[3] = target: human FcγRIIα_R167 (human) (UniProt P12318); assay: chip kinetics; antibody captured on protein A/G, receptor injected as analyte
FcγRIIβ [4] = target: FcγRIIβ (UniProt P31994); assay: as above
[5] = target: human FcγRIIα_H167 (human) (UniProt P12318); assay: as above
Chain of human FcγRIIα_H167 (human) (P12318 36-218): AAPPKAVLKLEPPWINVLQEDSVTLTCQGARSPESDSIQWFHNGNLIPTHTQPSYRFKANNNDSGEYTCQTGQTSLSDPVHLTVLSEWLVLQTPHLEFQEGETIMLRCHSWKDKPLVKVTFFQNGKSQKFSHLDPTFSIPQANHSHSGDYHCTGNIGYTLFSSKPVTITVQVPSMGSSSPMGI

Chain of FcγRIIβ (P31994 46-217): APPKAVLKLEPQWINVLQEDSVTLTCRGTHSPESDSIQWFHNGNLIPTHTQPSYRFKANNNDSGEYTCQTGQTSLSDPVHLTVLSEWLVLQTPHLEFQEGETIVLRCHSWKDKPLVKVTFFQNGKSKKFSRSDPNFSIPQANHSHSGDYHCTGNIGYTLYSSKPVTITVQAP
Chain of human FcγRIIα_R167 (human) (P12318 36-218 H167R): as the sequence (P12318 36-218) above, with H132R counted along it

Substance | Ratio iia/iib (KD human iia R/KD human iib) (FcγRIIβ [1]) | Ratio iib/iia (KD human iib/KD human iia R) (FcγRIIβ [2]) | Fold = KD(IgG WT)/KD(variants) [3] [fold] | Fold = KD(IgG WT)/KD(variants) (FcγRIIβ [4]) [fold] | Kd (FcγRIIβ [4]) [nM] | Kd [3] [nM] | Kd [5] [nM]
IgG1 P238D (antibody) | 3.12 | 0.32 | < 0.3 | 3.18 | 1600 | – | –
IgG1 WT (antibody) | – | – | – | – | – | 1550 | 1000
